Laboratory results published in patent publication US20030144191.

B1: TRP-PLIK2-GST fusion protein (TRP-PLIK2 kinase domain fused to GST) (protein)
chain: PMTMSSPLSQAKIMQTGGGYVNWAFSEGDETGVFSIKKKWQTCLPSTCDSDSSRSEQHQKQAQDSSLSDNSTRSAQSSECSEVGPWLQPNTSFWINPLRRYRPFARSHSFRFHKEEKLMKICKIKNLSGSSEIGQGAWVKAKMLTKDRRLSKKKKNTQGLQVPIITVNACSQSDQLNPEPGENSISEEEYSKNWFTVSKFSHTGVEPYIHQKMKTKEIGQCAIQISDYLKQSQEDLSKNSLWNSRSTNLNRNSLLKSSIGVDKISASLKSPQEPHHHYSAIERNNLMRLSQTIPFTPVQLFAGEEITVYRLEESSPLNLDKSMSSWSQRGRAAMIQVLSREEMDGGLRKAMRVVSTWSEDDILKPGQVFIVKSFLPEVVRTWHKIFQESTVLHLCLREIQQQRAAQKLIYTFNQVKPQTIPYTPRFLEVFLIYCHSANQWLTIEKYMTGEFRKYNNNNGDEITPTNTLEELMLAFSHWTYEYTRGELLVLDLQGVGENLTDPSVIKPEVKQSRGMVFGPANLGEDAIRNFIAKHHCNSCCRKLKLPDLKRNDYSPERINSTFGLEIKIESAEEPPARETGRNSPEDDMQL
32P incorporation (kinase assay, SDS-PAGE, autoradiography) (Histon): MBP was determined to be a preferred substrate over Histon. | 32P incorporation (kinase assay, SDS-PAGE, autoradiography) (MBP): MBP was determined to be a preferred substrate over Histon. | incorporated 32P in the substrate (kinase assay, SDS-PAGE, autoradiography) (MBP): predicted TRP-PLIK2 kinase domain was determined to have kinase activity as demonstrated by the phosphorylated MBP protein
